Assay results published in the supplement of paper PMC9112550, “Optimization of the antimicrobial peptide Bac7 by deep mutational scanning” (BMC Biology, 2022).

System: Escherichia coli TOP10
Assay: shrunken log2 fold change of peptide-encoding DNA abundance (4.5 h post-induction vs induction); higher = less antimicrobial activity (less host growth inhibition)
Conditions: time post-induction: 4.5 h; library: site-saturation at positions 5, 18, 19, 20
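Also: peptides expressed intracellularly from a pBAD plasmid library in pooled LB shake-flask culture, induced with 0.3% L-arabinose, DNA abundance read by NGS, three biological replicates, DESeq2 with apeglm shrinkage.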

| Sequence | shrunken log2 fold change |
| --- | --- |
| RRIRFRPPRLPRPRPRPSPIPRP | -0.13 |
| RRIRFRPPRLPRPRPRPSSMPRP | -0.965 |
| RRIRFRPPRLPRPRPRPSSYPRP | -0.676 |
| RRIRFRPPRLPRPRPRPSTAPRP | -0.0915 |
| RRIRFRPPRLPRPRPRPSTHPRP | -0.569 |
| RRIRFRPPRLPRPRPRPSVRPRP | -0.302 |
| RRIRFRPPRLPRPRPRPSWIPRP | -0.177 |
| RRIRFRPPRLPRPRPRPSYYPRP | -1.07 |
| RRIRFRPPRLPRPRPRPTAEPRP | 0.593 |
| RRIRFRPPRLPRPRPRPTCEPRP | 0.0933 |
| RRIRFRPPRLPRPRPRPTCFPRP | -0.157 |
| RRIRFRPPRLPRPRPRPTEYPRP | -0.423 |
| RRIRFRPPRLPRPRPRPTFNPRP | -0.279 |
| RRIRFRPPRLPRPRPRPTGYPRP | 0.0801 |
| RRIRFRPPRLPRPRPRPTHRPRP | -0.0781 |
| RRIRFRPPRLPRPRPRPTHTPRP | 0.186 |
| RRIRFRPPRLPRPRPRPTIAPRP | -0.27 |
| RRIRFRPPRLPRPRPRPTIHPRP | 0.865 |
| RRIRFRPPRLPRPRPRPTKGPRP | -0.0144 |
| RRIRFRPPRLPRPRPRPTKPPRP | -0.00249 |
| RRIRFRPPRLPRPRPRPTKVPRP | -0.157 |
| RRIRFRPPRLPRPRPRPTLGPRP | 0.175 |
| RRIRFRPPRLPRPRPRPTLVPRP | -0.141 |
| RRIRFRPPRLPRPRPRPTNQPRP | -0.259 |
| RRIRFRPPRLPRPRPRPTQKPRP | 0.94 |

| Sequence | shrunken log2 fold change |
| --- | --- |
| RRIRFRPPRLPRPRPRPTRLPRP | 0.08 |
| RRIRFRPPRLPRPRPRPTVGPRP | -0.142 |
| RRIRFRPPRLPRPRPRPTWGPRP | 0.132 |
| RRIRFRPPRLPRPRPRPTYDPRP | -0.604 |
| RRIRFRPPRLPRPRPRPTYGPRP | -0.252 |
| RRIRFRPPRLPRPRPRPTYSPRP | -0.209 |
| RRIRFRPPRLPRPRPRPTYTPRP | -0.719 |
| RRIRFRPPRLPRPRPRPVCCPRP | -0.0027 |
| RRIRFRPPRLPRPRPRPVCHPRP | -0.705 |
| RRIRFRPPRLPRPRPRPVFDPRP | -0.258 |
| RRIRFRPPRLPRPRPRPVGSPRP | -0.0263 |
| RRIRFRPPRLPRPRPRPVHPPRP | 0.037 |
| RRIRFRPPRLPRPRPRPVHWPRP | -0.105 |
| RRIRFRPPRLPRPRPRPVIDPRP | -0.225 |
| RRIRFRPPRLPRPRPRPVKAPRP | 0.0979 |
| RRIRFRPPRLPRPRPRPVMCPRP | -0.263 |
| RRIRFRPPRLPRPRPRPVMGPRP | 0.368 |
| RRIRFRPPRLPRPRPRPVMHPRP | -0.461 |
| RRIRFRPPRLPRPRPRPVMIPRP | 0.122 |
| RRIRFRPPRLPRPRPRPVMLPRP | -0.412 |
| RRIRFRPPRLPRPRPRPVNKPRP | -0.492 |
| RRIRFRPPRLPRPRPRPVNSPRP | -0.154 |
| RRIRFRPPRLPRPRPRPVPSPRP | -0.162 |
| RRIRFRPPRLPRPRPRPVQCPRP | 0.0456 |
| RRIRFRPPRLPRPRPRPVRPPRP | 1.18 |

| Sequence | shrunken log2 fold change |
| --- | --- |
| RRIRFRPPRLPRPRPRPVSEPRP | 0.114 |
| RRIRFRPPRLPRPRPRPVTFPRP | -0.213 |
| RRIRFRPPRLPRPRPRPVTGPRP | 0.0131 |
| RRIRFRPPRLPRPRPRPVTKPRP | 0.19 |
| RRIRFRPPRLPRPRPRPVTLPRP | 0.347 |
| RRIRFRPPRLPRPRPRPVTQPRP | -0.244 |
| RRIRFRPPRLPRPRPRPVTWPRP | -0.271 |
| RRIRFRPPRLPRPRPRPVVAPRP | 0.0597 |
| RRIRFRPPRLPRPRPRPVVMPRP | 0.297 |
| RRIRFRPPRLPRPRPRPVVTPRP | -0.756 |
| RRIRFRPPRLPRPRPRPVWDPRP | 0.0852 |
| RRIRFRPPRLPRPRPRPVYNPRP | -1.27 |
| RRIRFRPPRLPRPRPRPWCEPRP | -0.429 |
| RRIRFRPPRLPRPRPRPWECPRP | -0.0123 |
| RRIRFRPPRLPRPRPRPWFNPRP | -0.897 |
| RRIRFRPPRLPRPRPRPWGFPRP | 0.0091 |
| RRIRFRPPRLPRPRPRPWGVPRP | -0.517 |
| RRIRFRPPRLPRPRPRPWHIPRP | -0.213 |
| RRIRFRPPRLPRPRPRPWLYPRP | -1.2 |
| RRIRFRPPRLPRPRPRPWPDPRP | 0.0228 |
| RRIRFRPPRLPRPRPRPWRRPRP | 0.0103 |
| RRIRFRPPRLPRPRPRPWSHPRP | -0.843 |
| RRIRFRPPRLPRPRPRPWSNPRP | -0.0867 |
| RRIRFRPPRLPRPRPRPWSSPRP | 0.0276 |
| RRIRFRPPRLPRPRPRPWTCPRP | -0.126 |

| Sequence | shrunken log2 fold change |
| --- | --- |
| RRIRFRPPRLPRPRPRPWTEPRP | -0.119 |
| RRIRFRPPRLPRPRPRPWVPPRP | 0.0548 |
| RRIRFRPPRLPRPRPRPWYGPRP | -0.138 |
| RRIRFRPPRLPRPRPRPYADPRP | -0.0222 |
| RRIRFRPPRLPRPRPRPYAGPRP | -0.208 |
| RRIRFRPPRLPRPRPRPYCQPRP | -0.131 |
| RRIRFRPPRLPRPRPRPYDHPRP | -0.0263 |
| RRIRFRPPRLPRPRPRPYDVPRP | -0.185 |
| RRIRFRPPRLPRPRPRPYEIPRP | -0.241 |
| RRIRFRPPRLPRPRPRPYEQPRP | 0.00332 |
| RRIRFRPPRLPRPRPRPYHCPRP | 0.0331 |
| RRIRFRPPRLPRPRPRPYHKPRP | -0.6 |
| RRIRFRPPRLPRPRPRPYHMPRP | -0.128 |
| RRIRFRPPRLPRPRPRPYIVPRP | -0.97 |
| RRIRFRPPRLPRPRPRPYIYPRP | -0.0532 |
| RRIRFRPPRLPRPRPRPYKFPRP | -0.228 |
| RRIRFRPPRLPRPRPRPYNFPRP | -0.458 |
| RRIRFRPPRLPRPRPRPYPCPRP | -0.0436 |
| RRIRFRPPRLPRPRPRPYPHPRP | -1.04 |
| RRIRFRPPRLPRPRPRPYPWPRP | -0.9 |
| RRIRFRPPRLPRPRPRPYRDPRP | -0.0081 |
| RRIRFRPPRLPRPRPRPYRNPRP | -0.00237 |
| RRIRFRPPRLPRPRPRPYRPPRP | -1.76 |
| RRIRFRPPRLPRPRPRPYRQPRP | -0.477 |
| RRIRFRPPRLPRPRPRPYSAPRP | -1.11 |

| Sequence | shrunken log2 fold change |
| --- | --- |
| RRIRFRPPRLPRPRPRPYSMPRP | -0.417 |
| RRIRFRPPRLPRPRPRPYVTPRP | -0.148 |
| RRIRFRPPRLPRPRPRPYVWPRP | 0.109 |
| RRIRFRPPRLPRPRPRPYYNPRP | -0.855 |
| RRIRGRPPRLPRPRPRPAAWPRP | 0.936 |
| RRIRGRPPRLPRPRPRPADEPRP | 0.239 |
| RRIRGRPPRLPRPRPRPADRPRP | 1.07 |
| RRIRGRPPRLPRPRPRPADYPRP | 0.025 |
| RRIRGRPPRLPRPRPRPAEHPRP | 0.352 |
| RRIRGRPPRLPRPRPRPAELPRP | 0.472 |
| RRIRGRPPRLPRPRPRPAEQPRP | 1.25 |
| RRIRGRPPRLPRPRPRPAFEPRP | 0.414 |
| RRIRGRPPRLPRPRPRPAFTPRP | 0.436 |
| RRIRGRPPRLPRPRPRPAFWPRP | 0.71 |
| RRIRGRPPRLPRPRPRPAHEPRP | 0.0535 |
| RRIRGRPPRLPRPRPRPAIEPRP | 0.942 |
| RRIRGRPPRLPRPRPRPAIGPRP | 0.591 |
| RRIRGRPPRLPRPRPRPAIMPRP | 1 |
| RRIRGRPPRLPRPRPRPAMIPRP | 0.2 |
| RRIRGRPPRLPRPRPRPANDPRP | 0.902 |
| RRIRGRPPRLPRPRPRPANHPRP | 0.0248 |
| RRIRGRPPRLPRPRPRPAPFPRP | 0.722 |
| RRIRGRPPRLPRPRPRPAQCPRP | 0.471 |
| RRIRGRPPRLPRPRPRPAQTPRP | 0.221 |
| RRIRGRPPRLPRPRPRPAQYPRP | 0.233 |

| Sequence | shrunken log2 fold change |
| --- | --- |
| RRIRGRPPRLPRPRPRPARAPRP | 1.03 |
| RRIRGRPPRLPRPRPRPAREPRP | 0.38 |
| RRIRGRPPRLPRPRPRPARFPRP | 0.683 |
| RRIRGRPPRLPRPRPRPARMPRP | 0.613 |
| RRIRGRPPRLPRPRPRPARVPRP | 0.614 |
| RRIRGRPPRLPRPRPRPARYPRP | 0.339 |
| RRIRGRPPRLPRPRPRPASTPRP | 0.653 |
| RRIRGRPPRLPRPRPRPATKPRP | 0.649 |
| RRIRGRPPRLPRPRPRPAVPPRP | 0.686 |
| RRIRGRPPRLPRPRPRPAYRPRP | 0.181 |
| RRIRGRPPRLPRPRPRPCAFPRP | 2.03 |
| RRIRGRPPRLPRPRPRPCAMPRP | -0.102 |
| RRIRGRPPRLPRPRPRPCARPRP | 0.38 |
| RRIRGRPPRLPRPRPRPCAVPRP | 0.66 |
| RRIRGRPPRLPRPRPRPCCRPRP | 0.918 |
| RRIRGRPPRLPRPRPRPCCYPRP | 0.786 |
| RRIRGRPPRLPRPRPRPCFDPRP | 0.299 |
| RRIRGRPPRLPRPRPRPCFMPRP | 0.0852 |
| RRIRGRPPRLPRPRPRPCGSPRP | 0.107 |
| RRIRGRPPRLPRPRPRPCHHPRP | -0.00543 |
| RRIRGRPPRLPRPRPRPCHIPRP | -0.028 |
| RRIRGRPPRLPRPRPRPCHRPRP | 0.207 |
| RRIRGRPPRLPRPRPRPCHWPRP | -0.175 |
| RRIRGRPPRLPRPRPRPCIDPRP | 0.877 |
| RRIRGRPPRLPRPRPRPCILPRP | 0.0804 |
